# Results as given in IntAct's records for PubMed 36638908.
# B1: Eukaryotic translation initiation factor 4E1 (Drosophila melanogaster (Fruit fly)), P48598 (parent)
# chain: MQSDFHRMKNFANPKSMFKTSAPSTEQGRPEPPTSAAAPAEAKDVKPKEDPQETGEPAGNTATTTAPAGDDAVRTEHLYKHPLMNVWTLWYLENDRSKSWEDMQNEITSFDTVEDFWSLYNHIKPPSEIKLGSDYSLFKKNIRPMWEDAANKQGGRWVITLNKSSKTDLDNLWLDVLLCLIGEAFDHSDQICGAVINIRGKSNKISIWTADGNNEEAALEIGHKLRDALRLGRNNSLQYQLHKDTMVKQGSNVKSIYTL
# partner: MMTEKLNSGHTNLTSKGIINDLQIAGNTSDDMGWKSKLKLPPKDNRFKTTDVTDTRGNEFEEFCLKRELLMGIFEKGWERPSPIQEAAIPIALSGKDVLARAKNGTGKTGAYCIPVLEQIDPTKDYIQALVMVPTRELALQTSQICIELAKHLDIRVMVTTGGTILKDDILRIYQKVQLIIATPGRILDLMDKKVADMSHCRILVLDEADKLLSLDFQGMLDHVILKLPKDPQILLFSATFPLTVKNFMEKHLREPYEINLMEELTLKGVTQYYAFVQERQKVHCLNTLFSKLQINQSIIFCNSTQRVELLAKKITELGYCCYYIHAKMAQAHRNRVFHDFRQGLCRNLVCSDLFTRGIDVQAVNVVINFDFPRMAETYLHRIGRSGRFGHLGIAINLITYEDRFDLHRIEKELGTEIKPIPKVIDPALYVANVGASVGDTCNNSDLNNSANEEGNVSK
# Variants of: B1
# Details: with ddx6_drome me31B
row,effect of a mutation on the interaction,Variant
1,disrupting interaction strength,MQSDFHRMKNFANPKSMFKTSAPSTEQGRPEPPTSAAAPAEAKDVKPKEDPQETGEPAGNTATTTAPAGDDAVRTEHLYKHPLMNVWTLWYLENDRSKSWEDMQNEITSFDTVEDFASLYNHIKPPSEIKLGSDYSLFKKNIRPMWEDAANKQGGRWVITLNKSSKTDLDNLWLDVLLCLIGEAFDHSDQICGAVINIRGKSNKISIWTADGNNEEAALEIGHKLRDALRLGRNNSLQYQLHKDTMVKQGSNVKSIYTL [W117A]
